# Values quoted from earlier work in publication PMC9190259.
# Biological target: TNFα (Homo sapiens) (UniProt P01375)
# Chain of UniProt P01375 (P01375 77-233): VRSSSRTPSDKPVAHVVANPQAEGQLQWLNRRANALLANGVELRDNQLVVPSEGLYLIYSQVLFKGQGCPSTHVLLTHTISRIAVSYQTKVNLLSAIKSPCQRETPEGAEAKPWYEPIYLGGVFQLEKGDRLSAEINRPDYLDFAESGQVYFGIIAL
substance,measurement,value
Certolizumab Fab,Kd,0.09 nM
